This note sets out measurements from patent US20250257099A1 (priority 2022, published 2025).

Experiment [1] concerns the target MERS-CoV spike (S) protein (MERS-CoV) (UniProt K9N5Q8). Kind of experiment: cell-based or functional assay.
Experiment [2] concerns the target SARS-CoV-2 spike (S) glycoprotein (SARS-CoV-2) (UniProt P0DTC2). Kind of experiment: cell-based or functional assay.

“MERS-CoV C-lipopeptide (MERS-CoV S HRC residues 1251-1286, cholesterol-conjugated)”: the IC50, plaque-neutralization test, MERS-CoV infection of Vero E6 cells in experiment [1] was under 8 nM. This substance had an IC50, plaque-neutralization test, SARS-CoV-2 infection of Vero E6 cells in experiment [2] of 90 nM.
